Source: PMC10967716

Experiments:
Experiment in all cases: SEC
[1] = target: α-Methylacyl-CoA racemase from Mycobacterium tuberculosis, D156A mutant (M. tuberculosis) (UniProt O06543)
[2] = target: α-Methylacyl-CoA racemase from Mycobacterium tuberculosis, E241A mutant (M. tuberculosis) (UniProt O06543)
[3] = target: α-Methylacyl-CoA racemase from Mycobacterium tuberculosis, H126A mutant (M. tuberculosis) (UniProt O06543)

α-Methylacyl-CoA racemase from Mycobacterium tuberculosis, D156A mutant (from UniProt O06543 1-360) (enzyme)
stoichiometry N [1]: 2

α-Methylacyl-CoA racemase from Mycobacterium tuberculosis, E241A mutant (from UniProt O06543 1-360) (enzyme)
stoichiometry N [2]: 2

α-Methylacyl-CoA racemase from Mycobacterium tuberculosis, H126A mutant (from UniProt O06543 1-360) (enzyme)
stoichiometry N [3]: 2
